{
  "source": "patent US20220411514A1",
  "about": "“ANTI-GAL3 ANTIBODIES AND METHODS OF USE FOR INSULIN RESISTANCE” (TrueBinding, Inc., priority 2021, published 2022)",
  "molecules": {"B1": {"name": "847.15F9: anti-Gal3 antibody (antibody, V domains shown)", "VH": "QVQMKQSGPGLVQPSQSLSITCTVSGFSLINYGVHWVRQSPGKGLEWLGVIWSGGSTDYNAAFISRLSISKDNSKSQVFFKMNSLQADDTAIYYCARIYYYGRGYAMDYWGQGTSVTVSS", "VL": "QIVLSQSPAILSASPGEKVTMTCRASSSVTYMYWYQQKPGSSPQPWIYATSNLASGVPARFSGSGSGTSYSLTISRVEAEDAATYYCQQWSSNPLTFGAGTKLELK"}, "B2": {"name": "847.2B8: anti-Gal3 antibody (antibody, V domains shown)", "VH": "B1 VH with M4L", "VL": "B1 VL with V3L"}, "B3": {"name": "846T.4C9: anti-Gal3 antibody (antibody, V domains shown)", "VH": "EVQLQQSGPELVKPGASVKMSCKASGYSFTNYIMHWVKQKPGQGLEWIGYINPYNDGTKYNEKFKGKATLTSDKSSSTAYMELSSLTSEDSAVYYCARLLFYYAMDYWGQGTSVTVSS", "VL": "DILMTQTPSSMSVSLGDTVSITCHASQGISSNIGWLQQKPRKSFKGLIYYGTNLEDGVPSRFSGSGSGADYSLTISSLESEDFADYYCVQYDQFPWTFGGGTKLEIK"}, "B4": {"name": "849.4F12: anti-Gal3 antibody (antibody, V domains shown)", "VH": "QVQLKESGPGILQPSQTLSLTCSFSGFSLSTFGMGVGWIRQPSGKGLEWLAHIWWDDDKHYNPALKSRLTISKDTSKNQVFLRIANVDTADNATYYCARIDYGDYVGFAYWGQGTLVTVSA", "VL": "B3 VL with M4L, T7S, S30N, R41G, Y50H"}, "B5": {"name": "847.16D10: anti-Gal3 antibody (antibody, V domains shown)", "VH": "QVQLQQSGAELVRPGASVKLSCKASGYTFTGYWLNWVKQRPGQGLEWIGMIDPSDSETHYNQVFKDKATMTVDRSSSTAYMQLSGLTSEDSAVYYCANSNYASGSWGQGTTLTVSS", "VL": "QAVVTQESALTTSPGETVTLTCRSSTGAVTTSNYANWDQEKPDHLFTGLIGGTNNRAPGVPARFSGSLIGDKAALTITGAQTEDEAIYFCALWYSNHLVFGGGTKVTVL"}, "B6": {"name": "847.21B11: anti-Gal3 antibody (antibody, V domains shown)", "VH": "QVQLKQSGPGLVAPSQSLSITCTVSGFSLTSYGVHWVRQPPGKGLEWLGIIWAGGSTNYNPALMSRLSISKDKSKSQVFLKMNSLKTDDTAMYYCARDRASLLRPGAMDYWGQGTSVTVSS", "VL": "DIVMTQSQKFMSTSVGDRVSVTCKASQNVGINVAWYQQKPGQSPKALIYSASYRYSGVPDRFTGSGSGTDFTLTISNVQSEDLAEYFCQQYNSYPYTFGGGTKLEMK"}, "B7": {"name": "847.11D6: anti-Gal3 antibody (antibody, V domains shown)", "VH": "EVKLQQSGPELMKPGTSMKISCKASGYSFTGYTMNWVKQSHGKNLEWIGLINPYNGGTNYNQKFRGKATLSVDKSSNTAYMELLSLTSEDSAVYYCARKDDYYGSSPYALDYWGQGTSVTVSS", "VL": "DIVMTQSPASLAVSLGQRATISCRASESVENHVNSFMHWFQQKPGQPPKLLIYRASNLQSGIPARFSGSGSRTDFTLTINPVEADDVATYYCQQNNEVPYTFGGGTKLEIK"}, "B8": {"name": "847.4D3: anti-Gal3 antibody (antibody, V domains shown)", "VH": "EVQLVESGGGLVKPGGSLKLSCAASGFTFSSYAMSWVRQTPEKRLEWVASISSGDSPYYPDSVKGRFTISRDNARNILYLQMSSLRSEDTAMYYCTRFTTVVEMDYWGQGTSVTVSS", "VL": "DVVMTQTPKFLPITAEDRVTITCKASQSVSNEVAWYQQKPGQSPKLLIYYASNRYTGVPDRFTGSGSGTDFTFTIRSVQLEDLAVYFCQQHYSSPWTFGGGTKLEIK"}, "B9": {"name": "2D10.2B2: anti-Gal3 antibody (antibody)", "heavy": "QVQLQQSGPELVKPGASVKISCKASGYTFTDYYINWVKQRPGQGLEWIGWIYPGSNDTKYNEKFKGKATLTVDTSSSTAYMQLGSLTSEDSAVYFCANYFGCSGWFFDVWGTGTTVTVSSAKTTPPSVYPLAPVCGDTTGSSVTLGCLVKGYFPEPVTLTWNSGSLSSGVHTFPAVLQSDLYTLSSSVTVTSSTWPSQSITCNVAHPASSTKVDKKIEPRGPTIKPCPPCKCPAPNAAGGPSVFIFPPKIKDVLMISLSPIVTCVVVDVSEDDPDVQISWFVNNVEVHTAQTQTHREDYNSTLRVVSALPIQHQDWMSGKEFKCKVNNKDLGAPIERTISKPKGSVRAPQVYVLPPPEEEMTKKQVTLTCMVTDFMPEDIYVEWTNNGKTELNYKNTEPVLDSDGSYFMYSKLRVEKKNWVERNSYSCSVVHEGLHNHHTTKSFSRTPGK", "light": "DIVMTQAAFSNPVTLGTSASISCRSSKSLLHSDGITYLYWYLQRPGQSPQLLIYRMSNLASGVPDRFSGSGSGTDFTLRISRVEAEDVGVYYCAQMIEFPLTFGAGTILELKRADVAPTVSIFPPSSEQLTSGGASVVCFLNNFYPKDINVKWKIDGSERQNGVLNSWTDQDSKDSTYSMSSTLTLTKDEYERHNSYTCEATHKTSTSPIVKSFNRNEC", "modifications": "2D10.2B2 heavy chain peptide sequence; 2D10.2B2 light chain peptide sequence", "notes": "anti-Gal3 antibody"}},
  "note": "Changes are numbered by the printed parent chain.",
  "data": [
    {"target": "T1, human Gal3 (Homo sapiens, UniProt P17931)", "T1 construct": "6xHis (linker-spaced) (C); purchased AcroBio (Acro Biosystems) GA3-H5129", "T1 sequence (P17931 whole entry)": "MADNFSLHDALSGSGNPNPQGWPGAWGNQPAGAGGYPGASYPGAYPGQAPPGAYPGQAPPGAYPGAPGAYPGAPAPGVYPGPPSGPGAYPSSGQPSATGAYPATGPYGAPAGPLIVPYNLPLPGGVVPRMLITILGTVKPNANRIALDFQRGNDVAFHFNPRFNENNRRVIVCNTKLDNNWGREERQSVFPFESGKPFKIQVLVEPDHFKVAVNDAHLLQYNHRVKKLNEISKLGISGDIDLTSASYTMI", "experiment": "Epitope binning, sandwich format, SPR Carterra LSA (Example 8)", "format": "binding", "details": "not given", "protocol": "The epitope binning assay was done in a sandwich format on the high-throughput SPR-based Carterra LSA unit (CarterraBio, Salt Lake City, Utah). First, the purified antibodies were diluted to 10 μg/ml concentration in 10 mM NaOAc (pH 5.0) and then were covalently coupled via amine group to HC200M chip activated by EDC and S-NHS to immobilize antibodies to different positions of a 384-spot array. One hundred thirty-eight binning cycles were run on the array of immobilized antibodies. In each cycle, first, human Gal3 (AcroBio GA3-H5129) was injected over the entire array to bind to different antibodies (primary antibody), followed by one antibody (secondary antibody) selected among the panel of 150 anti-GAL3 antibodies tested. At the end of each cycle, the array was regenerated by 10 mM Glycine (pH 2.0) to remove bound antigen and secondary antibody from the array. The data analysis was done using the Epitope software by CarterraBio.", "values": [
      {"molecule": "B1", "binding to hGAL3 when immobilized on HC200M chip": "not bind"},
      {"molecule": "B2", "binding to hGAL3 when immobilized on HC200M chip": "not bind"},
      {"molecule": "B3", "binding to hGAL3 when immobilized on HC200M chip": "not bind"},
      {"molecule": "B4", "binding to hGAL3 when immobilized on HC200M chip": "not bind"},
      {"molecule": "B5", "epitope bin (mutual competitive binding for Gal3)": "CRD"},
      {"molecule": "B6", "binding to hGAL3 when immobilized on HC200M chip": "not bind"},
      {"molecule": "B7", "epitope bin (mutual competitive binding for Gal3)": "CRD"},
      {"molecule": "B8", "binding to hGAL3 when immobilized on HC200M chip": "not bind"}
    ]},
    {"tested_on": "Human Gal3 peptides", "experiment": "Gal3 peptide binding ELISA (Example 8)", "details": "antibody 5 μg/mL", "protocol": "(§1) Gal3 peptide binding activity of additional exemplary anti-Gal3 antibodies was assessed with the same peptides as described in FIG. 18 (SEQ ID NOs: 3-26). Human Gal3 peptides (LifeTein, custom order) and human Gal3 proteins (R&D Systems, 8259-GA; TrueBinding, QCB200349) were diluted in PBS (Corning, 21-030-CM) to concentrations of at least 100 μg/mL (peptides) or 1 μg/mL (proteins), and added to the wells of several 96-well ELISA plates (Thermo Fisher, 44-2404-21). After incubating the plates at 4° C. overnight, the plates were washed three times with PBST (PBS with 0.05% Tween 20 [VWR, 0777]). The plates were then blocked for an hour with 2% BSA (EMD Millipore, 126609) in PBST at room temperature with gentle rocking. Thereafter, the 2% BSA in PBST was discarded and Gal3-binding antibodies (reformatted hIgG4 [S228P]) were diluted in 2% BSA in PBST to concentrations of 5 μg/mL and added to the wells. The plates were incubated for an hour at room temperature with gentle rocking and then washed three times with PBST. Afterwards, Peroxidase AffiniPure F(ab′)2 Fragment Goat Anti-Human IgG (H+L) polyclonal antibody (Jackson ImmunoResearch, 109-036-003), was diluted in 2% BSA in PBST (1:4000) and added to the wells. The plates were incubated for 1 hour at room temperature with gentle rocking and then washed three times with PBST. TMB substrate (Thermo Scientific, 34029) was then added to each well. The reaction was stopped with 1M HCl (JT Baker, 5620-02) and read using a plate reader (Molecular Devices) at absorbance of 450 nm.", "values": [
      {"molecule": "B1", "binding to any of the tested Gal3 peptides": "not found to bind"},
      {"molecule": "B2", "binding to any of the tested Gal3 peptides": "not found to bind"},
      {"molecule": "B3", "binding to any of the tested Gal3 peptides": "not found to bind"},
      {"molecule": "B4", "binding to any of the tested Gal3 peptides": "not found to bind"},
      {"molecule": "B5", "binding to any of the tested Gal3 peptides": "not found to bind"},
      {"molecule": "B6", "binding to any of the tested Gal3 peptides": "not found to bind"},
      {"molecule": "B7", "binding to any of the tested Gal3 peptides": "not found to bind"},
      {"molecule": "B8", "binding to any of the tested Gal3 peptides": "not found to bind"}
    ]},
    {"target": "T2, Human Gal3 peptides (Homo sapiens, UniProt P17931)", "T2 construct": "purchased LifeTein custom order", "T2 sequence (P17931 52-71)": "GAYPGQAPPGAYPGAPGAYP", "experiment": "Gal3 peptide binding ELISA (Example 8)", "details": "antibody 5 μg/mL", "protocol": "as §1", "values": [
      {"molecule": "B9", "binding to Gal3 peptide 6 (SEQ ID NO: 8)": "bound"}
    ]},
    {"target": "T3, hGal3 peptide (Homo sapiens, UniProt P17931)", "T3 construct": "a library of 24 amino acid peptides representing portions of Gal3", "experiment": "Gal3 peptide library binding ELISA (Example 2)", "details": "not given", "protocol": "To identify the epitopes to which Gal3 antibodies with and without Gal3-INSR blocking activity bound, a library of 24 amino acid peptides representing portions of Gal3, depicted in FIG. 18, was produced and the ability of each peptide to bind Gal3 antibodies was evaluated by ELISA. At least 2 μg/ml of hGal3 peptide in 50 μl of PBS or 0.1 μg/ml of full-length human Gal3 protein (GenScript) and human Galectin-3 protein (Acro Biosystems, GA3-H5129) were diluted in PBS (Corning, 21-030-CM) to concentrations of at least 2 μg/ml or 0.1 μg/ml, respectively, and added to the wells of a 96-well ELISA plate (Thermo Fisher, 44-2404-21). After incubating the plate at 4° C. overnight, the plate was washed three times with PBST (PBS with 0.05% Tween 20 [VWR, 0777]). The plate was then blocked for an hour with 2% BSA (EMD Millipore, 126609) in PBST at room temperature with gentle rocking. Thereafter, the 2% BSA in PBST was discarded and human Galectin-3 hybridoma supernatants or antibodies were diluted in 2% BSA in PBST to concentrations of at least 0.1 μg/ml and added to the wells. The plate was incubated for an hour at room temperature with gentle rocking and then washed three times with PBST. Afterwards, Goat Anti-Mouse IgG-HRP (Jackson ImmunoResearch, 115-036-1461) or Goat Anti-Rat IgG HRP (Abcam, ab205720) diluted in 2% BSA in PBST (1:4000) were added to the wells. The plate was incubated for 30 minutes to 1 hour at room temperature with gentle rocking and then washed three times with PBST. TMB substrate (Thermo Scientific, 34029) was then added to each well. The reaction was stopped with 1M HCl (JT Baker, 5620-02) and read using a plate reader (Molecular Devices) at absorbance of 450 nm.", "values": [
      {"molecule": "B9", "binding to Gal3 peptide 6 (amino acids 51-70, SEQ ID NO: 8)": "bound"}
    ]}
  ]
}
